According to US20220127365A1:

Columns and labels:
human CD94 (human) [1] = target: human CD94 (human) (UniProt Q13241); assay: table column 'Affinity on human NK cells'; flow cytometry titration on human primary NK cells (the filing gives these affinities as EC50 of the titration curve)
human CD94 (human) [2] = target: human CD94 (human) (UniProt Q13241); assay: HLA-E tetramer blocking on healthy-donor PBMC NK cells, flow cytometry; competitor HLA-E tetramer
human CD94 (human) [3] = target: human CD94 (human) (UniProt Q13241); assay: table column 'HLA-E blocking'; flow cytometry on NK cells of healthy donor PBMCs, antibody at saturating concentration, blocked ligand PE labeled HLA-E tetramer; percent blocking = 100-((percent HLA-E positive with antibody)/(percent HLA-E positive with isotype)*100)
human CD94 (human) [4] = target: human CD94 (human) (UniProt Q13241); assay: competition assay, flow cytometry on CD3-CD56+ NK cells of healthy donor PBMCs; labeled HP-3B1 titrated, concurrently Human IgG1 control (or 18H3 at 1.3 µg/ml)
human CD94 (human) [5] = target: human CD94 (human) (UniProt Q13241); assay: competition assay, flow cytometry on NK cells of healthy donor PBMCs; labeled HP-3B1 titrated, concurrently Human IgG1 control
human CD94 (human) [6] = target: human CD94 (human) (UniProt Q13241); assay: competition assay, flow cytometry on CD3-CD56+ NK cells of healthy donor PBMCs; labeled HP-3B1 titrated in the presence of 1E4 at 11 µg/ml

Chain of human CD94 (human) (Q13241 whole entry): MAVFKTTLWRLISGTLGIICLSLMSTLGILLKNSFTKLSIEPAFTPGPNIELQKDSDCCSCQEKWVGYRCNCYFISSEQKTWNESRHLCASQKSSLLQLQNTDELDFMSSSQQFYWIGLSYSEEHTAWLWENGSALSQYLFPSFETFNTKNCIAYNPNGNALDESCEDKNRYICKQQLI

Affinity on human NK cells (human CD94 (human) [1])	percent HLA-E blocking (human CD94 (human) [2])	HLA-E blocking (human CD94 (human) [3])	EC50 (read off the curve) (human CD94 (human) [4])	EC50 (read off the curve) (human CD94 (human) [5])	EC50 (read off the curve) (human CD94 (human) [6])	Substance
0.15 nM	> 40%	99%				anti-CD94 antibody clone DX22
3 nM	> 40%	99.8%	3 nM	3 nM	2 nM	anti-CD94 antibody clone HP-3B1
